# T1: human PSGL-1 on activated primary human CD4+ T cells (human, UniProt Q14242 42-412)
# T1 construct: also called P-selectin glycoprotein ligand-1; SELPLG
# T1 sequence: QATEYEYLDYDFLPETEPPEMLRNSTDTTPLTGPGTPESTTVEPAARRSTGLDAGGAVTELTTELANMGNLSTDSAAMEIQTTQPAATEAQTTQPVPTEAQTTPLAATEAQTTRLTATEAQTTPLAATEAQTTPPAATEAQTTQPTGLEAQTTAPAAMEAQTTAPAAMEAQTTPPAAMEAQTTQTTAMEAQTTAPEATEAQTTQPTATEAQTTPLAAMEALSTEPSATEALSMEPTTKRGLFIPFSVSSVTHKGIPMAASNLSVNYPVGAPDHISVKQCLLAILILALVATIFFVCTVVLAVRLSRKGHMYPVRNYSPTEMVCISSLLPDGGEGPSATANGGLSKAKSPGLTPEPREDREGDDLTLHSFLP
# Experiments:
# [1] = target: T1, human PSGL-1 on activated primary human …; assay: flow cytometry on activated human CD4+ T cells, mean +/- SEM of 4 donors
# Description: (§1) Anti-lysozyme IgG4, h15A7 and 15A7H antibody binding affinity to activated CD4+ T cells were determined by plotting antibody concentration versus mean fluorescence index (MFI) for each sample duplicate using XLfit (model: dose response one site, 205). EC50 values were determined for each binding curve.
# Using flow cytometry, the binding of 15A7H to activated human CD4+ T-cells was determined.
# (§2) EC50 values from 4 donors were used to calculate Mean+/−SEM.
# [2] = target: T1, human PSGL-1 on activated primary human …; assay: flow cytometry on activated human CD4+ T cells, mean +/- SEM
# Description: as §1, §2
Binder,EC50 [1],EC50 [2]
"15A7H (antibody, human IgG4 S228P, kappa, Humanized IgG4 kappa antibody with the Ser228->Pro228 (EU index) hinge mutation, made in CHO-DG44 cells; also called hinge mutant of h15A7; 15A7H antibody) heavy: not shown light: DIQMTQSPSSLSASVGDRVTITCRSSQSIVHNDGNTYFEWYQQKPGKAPKLLIYKVSNRFSGVPSRFSGSGSGTHFTLTISSLQPEDFATYYCFQGSYVPLTFGQGTKVEIKRTVAAPSVFIFPPSDEQLKSGTASVVCLLNNFYPREAKVQWKVDNALQSGNSQESVTEQDSKDSTYSLSSTLTLSKADYEKHKVYACEVTHQGLSSPVTKSFNRGEC",0.22 nM,–
"h15A7 (antibody, human IgG4, kappa, Parent IgG4 kappa antibody with the wild-type hinge; also called Antibody h15A7) heavy: not shown light: DIQMTQSPSSLSASVGDRVTITCRSSQSIVHNDGNTYFEWYQQKPGKAPKLLIYKVSNRFSGVPSRFSGSGSGTHFTLTISSLQPEDFATYYCFQGSYVPLTFGQGTKVEIKRTVAAPSVFIFPPSDEQLKSGTASVVCLLNNFYPREAKVQWKVDNALQSGNSQESVTEQDSKDSTYSLSSTLTLSKADYEKHKVYACEVTHQGLSSPVTKSFNRGEC",–,0.27 nM

# From patent publication US20130251708A1 (ABGENOMICS COOPERATIEF U A, published 2013)
